# Patent US20210301025A1 (published 2021)
# Read-outs that look alike come from different tables or passages of the source.
# Columns and labels:
# [1] = biological target: T1, Recombinant human c-Met Fc chimera (human, UniProt P08581 16-932); test: competition with biotinylated HGF on plate-coated c-Met-Fc
# T1 construct: whole c-Met entry named; also called c-Met-Fc fusion protein
# [2] = biological target: T2, recombinant c-Met extracellular domain (human, UniProt P08581 16-932); test: SPR kinetic analysis as in Example 2
# T2 construct: Construct used for SPR is not described further (may be the Fc chimera, as the protocol captures on anti-human Fc)
# [3] = biological target: T3, human c-Met on cells (NCI-H441, NCI-H292, U87-MG) (human, UniProt P08581 25-1390); test: cell-based or functional assay
# [4] = biological target: T3, human c-Met on cells (NCI-H441, …); test: NCI-H441 cell binding, anti-His fluorescence
# Protocol: Purified FN3 domains (50 μL/well; 0 to 1000 nM) were added to the cells for 1 hour at 4° C. in duplicate plates. Supernatant was removed and cells were washed three times with FACS stain buffer (150 μL/well, BD Biosciences, cat #554657). Cells were incubated with biotinylated-anti HIS antibody (diluted 1:160 in FACS stain buffer, 50 μL/well, R&D Systems, cat # BAM050) for 30 minutes at 4° C. Cells were washed three times with FACS stain buffer (150 μL/well), after which wells were incubated with anti mouse IgG1-Alexa 488 conjugated antibody (diluted 1:80 in FACS stain buffer, 50 μL/well, Life Technologies, cat # A21121) for 30 minutes at 4° C. Cells were washed three times with FACS stain buffer (150 μL/well) and left in FACS stain buffer (50 μL/well). Total fluorescence was determined using an Acumen eX3 reader. Data were plotted as raw fluorescence signal against the logarithm of the FN3 domain molar concentration and fitted to a sigmoidal dose-response curve with variable slope using GraphPad Prism 4 (GraphPad Software) to calculate EC₅₀ values.
# [5] = biological target: T2, recombinant c-Met extracellular domain; test: SPR (ProteOn) per Example 3
# Excerpt: (§1) Select EGFR/c-Met molecules were characterized for their affinity to both EGFR and c-Met, their ability to inhibit EGFR and c-Met autophosphorylation, and their effect on proliferation of HGF cells. Binding affinity of the bispecific EGFR/c-Met molecules to recombinant EGFR and/or c-Met extracellular domain was further by surface Plasmon resonance methods using a Proteon Instrument (BioRad) according to protocol described in Example 3.
# [6] = biological target: T4, recombinant human extracellular domain of EGFR fused to an IgG1 Fc (human, UniProt P00533 25-645); test: SPR (ProteOn) per Example 3
# T4 construct: Bought (R&D Systems); captured on anti-human Fc IgG for SPR; also called EGFR-Fc
# Excerpt: as §1
# [7] = biological target: human EGFR on cells (A431, NCI-H292, NCI-H322, NCI-H441) (human, UniProt P00533 25-1210); test: cell-based or functional assay
# [8] = biological target: T3, human c-Met on cells (NCI-H441, …); test: cell-based or functional assay; remark: listed apart in the source
binder,measurement,setting,value
"P114AR5P75-E9 (designed binder, not shown: small tags and cut ends) LPAPKNLVVSRVTEDSARLSWTAPDAAFDSFFIRYDEFLRSGEAIVLTVPGSERSYDLTGLKPGTEYWVTILGVKGGLVSTPLSAIFTT",IC50,[1],51.9 nM
same,Kd,[2],45.8 nM
same,Inhibition of proliferation of U87-MG cells IC50,[3],1190 nM
same,pMet inhibition in H441 cells IC50,[3],1420 nM
"P114AR7P94-A3 (designed binder, not shown: small tags and cut ends) LPAPKNLVVSRVTEDSARLSWTAPDAAFDSFWIRYFEFLGSGEAIVLTVPGSERSYDLTGLKPGTEYVVNIMGVKGGKISPPLSAIFTT",IC50,[1],0.2 nM
same,Kd,[2],0.4 nM
same,Inhibition of proliferation of U87-MG cells IC50,[3],9.3 nM
same,pMet inhibition in H441 cells IC50,[3],5 nM
same,EC50,[4],1.4 nM
"P114AR7P92-F6 (designed binder, not shown: small tags and cut ends) LPAPKNLVVSRVTEDSARLSWTAPDAAFDSFWIRYFEFLGSGEAIVLTVPGSERSYDLTGLKPGTEYVVNILGVKGGGLSVPLSAIFTT",IC50,[1],2.2 nM
same,Kd,[2],3.1 nM
same,Inhibition of proliferation of U87-MG cells IC50,[3],350 nM
same,pMet inhibition in H441 cells IC50,[3],165 nM
same,EC50,[4],4.9 nM
"P114AR7P95-F10 (designed binder, not shown: small tags and cut ends) LPAPKNLVVSRVTEDSARLSWTAPDAAFDSFWIRYFEFTTAGEAIVLTVPGSERSYDLTGLKPGTEYVVNIMGVKGGSISPPLSAIFTT",IC50,[1],1.4 nM
same,Kd,[2],4.2 nM
same,Inhibition of proliferation of U87-MG cells IC50,[3],130 nM
same,pMet inhibition in H441 cells IC50,[3],188 nM
same,EC50,[4],4.4 nM
"P114AR7P93-G8 (designed binder, not shown: small tags and cut ends) LPAPKNLVVSRVTEDSARLSWTAPDAAFDSFWIRYFEFLGSGEAIVLTVPGSERSYDLTDLKPGTEYGVTINGVKGGRVSTPLSAIFTT",IC50,[1],1 nM
same,Kd,[2],6.9 nM
same,Inhibition of proliferation of U87-MG cells IC50,[3],104 nM
same,pMet inhibition in H441 cells IC50,[3],460 nM
same,EC50,[4],3.8 nM
"P114AR7P92-F3 (designed binder, not shown: small tags and cut ends) LPAPKNLVVSRVTEDSARLSWTAPDAAFDSFWIRYFEFLGSGEAIVLTVPGSERSYDLTGLKPGTEYIVNIMGVKGGSISHPLSAIFTT",IC50,[1],0.2 nM
same,Kd,[2],0.4 nM
same,Inhibition of proliferation of U87-MG cells IC50,[3],2.7 nM
same,pMet inhibition in H441 cells IC50,[3],8.3 nM
"P114AR7P92-G8 (designed binder, not shown: small tags and cut ends) LPAPKNLVVSRVTEDSARLSWTAPDAAFDSFVIRYFEFLGSGEAIVLTVPGSERSYDLTGLKPGTEYVVQILGVKGGYISIPLSAIFTT",IC50,[1],1.6 nM
same,Kd,[2],1 nM
same,Inhibition of proliferation of U87-MG cells IC50,[3],124 nM
same,pMet inhibition in H441 cells IC50,[3],155 nM
same,EC50,[4],5.9 nM
"P114AR7P93-H9 (designed binder, not shown: small tags and cut ends) LPAPKNLVVSRVTEDSARLSWTAPDAAFDSFWIRYFEFLGSGEAIVLTVPGSERSYDLTGLKPGTEYVVQIIGVKGGHISLPLSAIFTT",IC50,[1],2.9 nM
same,Kd,[2],3.3 nM
same,Inhibition of proliferation of U87-MG cells IC50,[3],270 nM
same,pMet inhibition in H441 cells IC50,[3],288 nM
same,EC50,[4],12.9 nM
"P114AR7P94-E5 (designed binder, not shown: small tags and cut ends) LPAPKNLVVSRVTEDSARLSWTAPDAAFDSFWIRYFEFLGSGEAIVLTVPGSERSYDLTGLKPGTEYAVNIMGVKGGRVSVPLSAIFTT",IC50,[1],0.7 nM
same,Kd,[2],4.2 nM
same,Inhibition of proliferation of U87-MG cells IC50,[3],196 nM
same,pMet inhibition in H441 cells IC50,[3],124 nM
same,EC50,[4],3.4 nM
"ECB95 (designed binder, not shown: small tags and cut ends, Bispecific: P54AR4-83v22, (AP)5, P114AR9P121-A6v2) MLPAPKNLVVSEVTEDSARLSWDDPWAFYESFLIQYQESEKVGEAIVLTVPGSERSYDLTGLKPGTEYTVSIYGVHNVYKDTNIRGLPLSAIFTTAPAPAPAPAPLPAPKNLVVSRVTEDSARLSWTAPDAAFDSFWIRYFEFVGSGEAIVLTVPGSERSYDLTGLKPGTEYVVNILGVKGGSISPPLSAIFTT",Kd,[5],6.2 nM
same,Kd,[6],1.1 nM
same,pEGFR inhibition in H292 cells IC50,[7],13.6 nM
same,pMet inhibition in H441 cells IC50,[8],179 nM
"ECB15 (designed binder, not shown: small tags and cut ends) MLPAPKNLVVSEVTEDSARLSWDDPWAFYESFLIQYQESEKVGEAIVLTVPGSERSYDLTGLKPGTEYTVSIYGVHNVYKDTNMRGLPLSAIFTTAPAPAPAPAPLPAPKNLVVSRVTEDSARLSWTAPDAAFDSFWIRYFEFLGSGEAIVLTVPGSERSYDLTGLKPGTEYVVNIMGVKGGKISPPLSAIFTT",Kd,[5],2.6 nM
same,Kd,[6],0.2 nM
same,pEGFR inhibition in H292 cells IC50,[7],4.2 nM
"ECB106 (designed binder, not shown: small tags and cut ends, Bispecific: P54AR4-83v23, (AP)5, P114AR7P94-A3v22) MLPAPKNLVVSEVTEDSARLSWDDPHAFYESFLIQYQESEKVGEAIVLTVPGSERSYDLTGLKPGTEYTVSIYGVHNVYKDTNIRGLPLSAIFTTAPAPAPAPAPLPAPKNLVVSRVTEDSARLSWTAPDAAFDSFWIRYFEFLGSGEAIVLTVPGSERSYDLTGLKPGTEYVVNILGVKGGKISPPLSAIFTT",Kd,[5],5.1 nM
same,Kd,[6],16.7 nM
same,pEGFR inhibition in H292 cells IC50,[7],367 nM
same,pMet inhibition in H441 cells IC50,[8],53.3 nM
"ECB94 (designed binder, not shown: small tags and cut ends, Bispecific: P54AR4-83v22, (AP)5, P114AR7P94-A3v22) MLPAPKNLVVSEVTEDSARLSWDDPWAFYESFLIQYQESEKVGEAIVLTVPGSERSYDLTGLKPGTEYTVSIYGVHNVYKDTNIRGLPLSAIFTTAPAPAPAPAPLPAPKNLVVSRVTEDSARLSWTAPDAAFDSFWIRYFEFLGSGEAIVLTVPGSERSYDLTGLKPGTEYVVNILGVKGGKISPPLSAIFTT",Kd,[5],4.3 nM
same,Kd,[6],1 nM
same,pEGFR inhibition in H292 cells IC50,[7],5.1 nM
same,pMet inhibition in H441 cells IC50,[8],53.8 nM
"ECB96 (designed binder, not shown: small tags and cut ends, Bispecific: P54AR4-83v22, (AP)5, P114AR9P122-A7v2) MLPAPKNLVVSEVTEDSARLSWDDPWAFYESFLIQYQESEKVGEAIVLTVPGSERSYDLTGLKPGTEYTVSIYGVHNVYKDTNIRGLPLSAIFTTAPAPAPAPAPLPAPKNLVVSRVTEDSARLSWTAPDAAFDSFWIRYFEFVSKGDAIVLTVPGSERSYDLTGLKPGTEYVVNILGVKGGSISPPLSAIFTT",Kd,[5],22.1 nM
same,Kd,[6],1.6 nM
same,pEGFR inhibition in H292 cells IC50,[7],24.7 nM
same,pMet inhibition in H441 cells IC50,[8],835 nM
"ECB107 (designed binder, not shown: small tags and cut ends, Bispecific: P54AR4-83v23, (AP)5, P114AR9P121-A6v2) MLPAPKNLVVSEVTEDSARLSWDDPHAFYESFLIQYQESEKVGEAIVLTVPGSERSYDLTGLKPGTEYTVSIYGVHNVYKDTNIRGLPLSAIFTTAPAPAPAPAPLPAPKNLVVSRVTEDSARLSWTAPDAAFDSFWIRYFEFVGSGEAIVLTVPGSERSYDLTGLKPGTEYVVNILGVKGGSISPPLSAIFTT",Kd,[5],9 nM
same,Kd,[6],16.9 nM
same,pEGFR inhibition in H292 cells IC50,[7],812 nM
same,pMet inhibition in H441 cells IC50,[8],29.9 nM
"ECB97 (designed binder, not shown: small tags and cut ends, Bispecific: P54AR4-83v22, (AP)5, P114AR7P95-C5v2) MLPAPKNLVVSEVTEDSARLSWDDPWAFYESFLIQYQESEKVGEAIVLTVPGSERSYDLTGLKPGTEYTVSIYGVHNVYKDTNIRGLPLSAIFTTAPAPAPAPAPLPAPKNLVVSRVTEDSARLSWTAPDAAFDSFWIRYFEFLGSGEAIVLTVPGSERSYDLTGLKPGTEYVVNILSVKGGSISPPLSAIFTT",Kd,[5],1.7 nM
same,Kd,[6],1.3 nM
same,pEGFR inhibition in H292 cells IC50,[7],16.6 nM
same,pMet inhibition in H441 cells IC50,[8],24.2 nM
